Data: publication PMC3562449 (Nature Communications, 2013)
Values joined by “and” are separate entries in the source; they are usually repeats but may differ in a detail not shown here. Equal values may be shown once. Each block holds one molecule with its values, some of them ahead of it.

Key:
[1] = target: BASS-NoC double mutant with Cys at residues 671 and 788 (Drosophila) (UniProt P46863); experiment: SEC + other: sucrose density gradient centrifugation
[2] = target: BASS-NoC double mutant with Cys at residues 671 and 791 (Drosophila) (UniProt P46863); experiment: as above
[3] = target: BASS-NoC single mutant with Cys at residue 671 (Drosophila) (UniProt P46863); experiment: as above
[4] = target: BASS-NoC single mutant with Cys at residue 788 (Drosophila) (UniProt P46863); experiment: as above
[5] = target: BASS-NoC single mutant with Cys at residue 791 (Drosophila) (UniProt P46863); experiment: as above
native MS = target: the molecule itself; experiment: native MS
SEC = target: the molecule itself; experiment: SEC

B1: BASS (bipolar assembly) domain of kinesin-5, residues 631–920 (domain or fragment, Drosophila, UniProt P46863 631-920, looked up)
chain: EQMQQQQLLMSKEIQTNLQVIEENNQRHKAMLDSMQEKFATIIDSSLQSVEEHAKQMHKKLEQLGAMSLPDAEELQNLQEELANERALAQQEDALLESMMMQMEQIKNLRSKNSISMSVHLNKMEESRLTRNHRIDDIKSGIQDYQKLGIEASQSAQAELTSQMEAGMLCLDQGVANCSMLQVHMKNLNQKYEKETNENVGSVRVHHNQVEIICQESKQQLEAVQEKTEVNLEQMVDARQQLITEDRQRFIGHATVATDLVQESNRQFSEHAEHQRQQLQICEQELVRFQ
stoichiometry N (native MS): 2 and 4

B2: BASS-core (BASS 631–835) (domain or fragment, Drosophila, UniProt P46863 631-835, looked up)
chain: EQMQQQQLLMSKEIQTNLQVIEENNQRHKAMLDSMQEKFATIIDSSLQSVEEHAKQMHKKLEQLGAMSLPDAEELQNLQEELANERALAQQEDALLESMMMQMEQIKNLRSKNSISMSVHLNKMEESRLTRNHRIDDIKSGIQDYQKLGIEASQSAQAELTSQMEAGMLCLDQGVANCSMLQVHMKNLNQKYEKETNENVGSVRV
stoichiometry N (SEC): 4

B3: BASS 631–790 (domain or fragment, Drosophila, UniProt P46863 631-790, looked up)
chain: EQMQQQQLLMSKEIQTNLQVIEENNQRHKAMLDSMQEKFATIIDSSLQSVEEHAKQMHKKLEQLGAMSLPDAEELQNLQEELANERALAQQEDALLESMMMQMEQIKNLRSKNSISMSVHLNKMEESRLTRNHRIDDIKSGIQDYQKLGIEASQSAQAEL
stoichiometry N (SEC): 4 and 2

The remaining lines, values ahead:

stoichiometry N [1]: 4
Molecule: BASS-NoC double mutant with Cys at residues 671 and 788 (from UniProt P46863 631-920) (domain or fragment)

stoichiometry N [2]: 4
Molecule: BASS-NoC double mutant with Cys at residues 671 and 791 (from UniProt P46863 631-920) (domain or fragment)

stoichiometry N [3]: 4
Molecule: BASS-NoC single mutant with Cys at residue 671 (from UniProt P46863 631-920) (domain or fragment)

stoichiometry N [4]: 4
Molecule: BASS-NoC single mutant with Cys at residue 788 (from UniProt P46863 631-920) (domain or fragment)

stoichiometry N [5]: 4
Molecule: BASS-NoC single mutant with Cys at residue 791 (from UniProt P46863 631-920) (domain or fragment)
